Measurements reported in patent US20220177587A1, “METHODS AND USES OF VARIANT CD80 FUSION PROTEINS AND RELATED CONSTRUCTS” (Alpine Immune Sciences, Inc., priority 2018, published 2022).

Columns and labels:
Mouse PK model = assay type: in vivo; conditions: mouse PK model estimate
Description: A PK model was designed as a two compartment model with intercompartmental distribution (Q) between the first compartment (Central Compartment, V1) and the second compartment (Peripheral Compartment, V2). To capture intraperitoneal (IP) or subcutaneous (SC) injection routes, a third compartment (Depot Compartment) was included with a first-order rate constant (Ka) linking the third compartment uni-directionally to the first compartment. The model also included a constant F to account for loss in the amount of drug available to diffuse from the third compartment (Depot Compartment) to the first compartment (Central Compartment, V1) due to IP or SC injection. The total amount of available drug in the third compartment (Depot Compartment) is described as F×Dose. For intravenous injections (IV), the third compartment (Depot Compartment) was omitted.
Drug clearance (CL) from the first compartment (Central Compartment, V1) was modeled differently for each species. In the mouse model, a time-dependent increase in clearance due to the formation of anti-drug antibodies was accounted for as follows:
For monkeys, linear clearance from the first compartment (Central Compartment, V1) was assumed.
PK was also compared in tumor-bearing versus non-tumor-bearing mice. […] All treatments were administered IP. PK was determined in tumor-bearing mice in all groups and compared to the predicted PK in non-tumor bearing mice.

huCTLA4 = huCTLA4 (Homo sapiens, UniProt P16410); experiment: Antagonism of CD80/CTLA-4 binding on CHO cells expressing CTLA-4; design: Full-length mammalian surface expression constructs for each of human CTLA-4, PD-L1, and CD28; conditions: 25 nM fluorochrome-conjugated wild-type CD80-Fc; FIG. 21
Sequence of huCTLA4 (P16410 36-223): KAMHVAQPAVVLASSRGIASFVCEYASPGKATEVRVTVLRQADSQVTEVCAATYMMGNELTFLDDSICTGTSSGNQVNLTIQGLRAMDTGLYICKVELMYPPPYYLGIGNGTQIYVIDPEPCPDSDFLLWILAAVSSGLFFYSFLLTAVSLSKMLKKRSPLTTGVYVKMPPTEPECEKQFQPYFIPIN
Description: After washing, cells were incubated with 25 nM fluorochrome-conjugated wild-type CD80-Fc. Bound fluorescent competitor protein was detected and measured by flow cytometry.
The multivalent variant CD80 IgSF domain fusion proteins were assessed to test for blocking of the PD-L1/PD-1 and CTLA-4/CD80 interaction performed substantially as described in Example 15. CHO/OKT3/PD-L1 and CHO/CTLA-4 cells were counted and plated at 100,000 cells/well and then incubated with fluorescently conjugated PD-1-Fc and CD80-Fc. Exemplary multivalent variant CD80 IgSF domain fusion proteins were incubated with the cells for 30 minutes. […] Cells were washed and incubated with 100 nM fluorescently conjugated PD-1-Fc and CD80-Fc competitor for 30 minutes. Cells were then washed and samples were acquired on a flow cytometer and MFIs of the fluorescently labeled molecules were determined.

Substance: H18Y/A26E/E35D/M47L/V68M/A71G/D90G: variant CD80 IgV-Fc (inert), IgV SEQ ID NO:491
- CL (Mouse PK model): 1.34 mL/day
- F (Mouse PK model): 99%
- Ka (Mouse PK model): 4.53 day⁻¹
- Q (Mouse PK model): 26.5 mL/day
- V1 (Mouse PK model): 1.94 mL
- V2 (Mouse PK model): 8.88 mL
- β (Mouse PK model; time-dependent clearance constant): 0.0685 day⁻¹
- antagonism of binding of CD80 to CTLA-4 (huCTLA4): antagonized the binding of CD80 to CTLA-4
